The values below come from IntAct's records for PubMed 31515488.

To fix the notation:
B1: ATP-binding cassette sub-family F member 3 (Homo sapiens), Q9NUQ8 (parent)
chain: MATCAEILRSEFPEIDGQVFDYVTGVLHSGSADFESVDDLVEAVGELLQEVSGDSKDDAGIRAVCQRMYNTLRLAEPQSQGNSQVLLDAPIQLSKITENYDCGTKLPGLLKREQSSTVNAKKLEKAEARLKAKQEKRSEKDTLKTSNPLVLEEASASQAGSRKESRLESSGKNKSYDVRIENFDVSFGDRVLLAGADVNLAWGRRYGLVGRNGLGKTTLLKMLATRSLRVPAHISLLHVEQEVAGDDTPALQSVLESDSVREDLLRRERELTAQIAAGRAEGSEAAELAEIYAKLEEIEADKAPARASVILAGLGFTPKMQQQPTREFSGGWRMRLALARALFARPDLLLLDEPTNMLDVRAILWLENYLQTWPSTILVVSHDRNFLNAIATDIIHLHSQRLDGYRGDFETFIKSKQERLLNQQREYEAQQQYRQHIQVFIDRFRYNANRASQVQSKLKMLEKLPELKPVDKESEVVMKFPDGFEKFSPPILQLDEVDFYYDPKHVIFSRLSVSADLESRICVVGENGAGKSTMLKLLLGDLAPVRGIRHAHRNLKIGYFSQHHVEQLDLNVSAVELLARKFPGRPEEEYRHQLGRYGISGELAMRPLASLSGGQKSRVAFAQMTMPCPNFYILDEPTNHLDMETIEALGRALNNFRGGVILVSHDERFIRLVCRELWVCEGGGVTRVEGGFDQYRALLQEQFRREGFL
partner: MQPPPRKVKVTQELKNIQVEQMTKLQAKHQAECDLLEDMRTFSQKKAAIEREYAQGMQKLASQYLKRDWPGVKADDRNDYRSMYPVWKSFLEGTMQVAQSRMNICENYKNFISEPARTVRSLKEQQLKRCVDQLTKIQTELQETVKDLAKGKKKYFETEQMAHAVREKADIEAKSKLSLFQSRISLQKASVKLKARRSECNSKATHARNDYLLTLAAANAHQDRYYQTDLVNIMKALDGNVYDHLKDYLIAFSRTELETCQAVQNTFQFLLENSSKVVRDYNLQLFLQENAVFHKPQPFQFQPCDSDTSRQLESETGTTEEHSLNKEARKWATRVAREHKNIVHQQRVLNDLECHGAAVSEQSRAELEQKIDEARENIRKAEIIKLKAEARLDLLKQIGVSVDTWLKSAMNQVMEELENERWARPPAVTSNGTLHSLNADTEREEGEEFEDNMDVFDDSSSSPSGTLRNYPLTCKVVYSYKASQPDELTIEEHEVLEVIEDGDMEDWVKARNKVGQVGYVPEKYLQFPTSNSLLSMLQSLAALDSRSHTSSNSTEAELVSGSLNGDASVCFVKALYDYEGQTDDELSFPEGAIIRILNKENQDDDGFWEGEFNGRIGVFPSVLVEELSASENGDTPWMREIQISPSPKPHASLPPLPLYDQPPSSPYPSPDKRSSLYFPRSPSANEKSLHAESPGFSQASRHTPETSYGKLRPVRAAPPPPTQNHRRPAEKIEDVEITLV
B2: Melanoma-associated antigen F1 (Homo sapiens), Q9HAY2 (parent)
chain: MLQTPESRGLPVPQAEGEKDGGHDGETRAPTASQERPKEELGAGREEGAAEPALTRKGARALAAKALARRRAYRRLNRTVAELVQFLLVKDKKKSPITRSEMVKYVIGDLKILFPDIIARAAEHLRYVFGFELKQFDRKHHTYILINKLKPLEEEEEEDLGGDGPRLGLLMMILGLIYMRGNSAREAQVWEMLRRLGVQPSKYHFLFGYPKRLIMEDFVQQRYLSYRRVPHTNPPEYEFSWGPRSNLEISKMEVLGFVAKLHKKEPQHWPVQYREALADEADRARAKARAEASMRARASARAGIHLW
B3: Growth arrest and DNA damage-inducible protein GADD45 gamma (Homo sapiens), O95257 (parent)
chain: MTLEEVRGQDTVPESTARMQGAGKALHELLLSAQRQGCLTAGVYESAKVLNVDPDNVTFCVLAAGEEDEGDIALQIHFTLIQAFCCENDIDIVRVGDVQRLAAIVGAGEEAGAPGDLHCILISNPNEDAWKDPALEKLSLFCEESRSVNDWVPSITLPE
partner: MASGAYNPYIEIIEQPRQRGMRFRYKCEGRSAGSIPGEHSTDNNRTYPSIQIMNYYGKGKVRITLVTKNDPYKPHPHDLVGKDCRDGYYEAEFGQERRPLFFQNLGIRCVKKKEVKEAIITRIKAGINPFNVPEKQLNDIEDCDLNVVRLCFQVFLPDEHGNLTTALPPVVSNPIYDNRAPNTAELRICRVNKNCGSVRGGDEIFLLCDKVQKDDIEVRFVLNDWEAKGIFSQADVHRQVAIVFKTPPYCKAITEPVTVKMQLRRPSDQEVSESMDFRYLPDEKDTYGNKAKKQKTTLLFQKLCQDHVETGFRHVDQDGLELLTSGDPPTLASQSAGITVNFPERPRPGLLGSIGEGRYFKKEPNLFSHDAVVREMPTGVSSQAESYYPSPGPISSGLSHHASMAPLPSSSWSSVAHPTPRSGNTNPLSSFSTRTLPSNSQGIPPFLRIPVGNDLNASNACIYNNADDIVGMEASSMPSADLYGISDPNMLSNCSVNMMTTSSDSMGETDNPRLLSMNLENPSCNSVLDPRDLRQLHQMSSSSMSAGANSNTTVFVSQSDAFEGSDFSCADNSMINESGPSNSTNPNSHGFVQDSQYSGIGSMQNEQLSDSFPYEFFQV
B4: Thialysine N-epsilon-acetyltransferase (Homo sapiens), Q96F10 (parent)
chain: MASVRIREAKEGDCGDILRLIRELAEFEKLSDQVKISEEALRADGFGDNPFYHCLVAEILPAPGKLLGPCVVGYGIYYFIYSTWKGRTIYLEDIYVMPEYRGQGIGSKIIKKVAEVALDKGCSQFRLAVLDWNQRAMDLYKALGAQDLTEAEGWHFFCFQGEATRKLAGK
B5: Notch homolog 2 N-terminal-like protein A (Homo sapiens), Q7Z3S9 (parent)
chain: MCVTYHNGTGYCKCPEGFLGEYCQHRDPCEKNRCQNGGTCVAQAMLGKATCRCASGFTGEDCQYSTSHPCFVSRPCLNGGTCHMLSRDTYECTCQVGFTGKECQWTDACLSHPCANGSTCTTVANQFSCKCLTGFTGQKCETDVNECDIPGHCQHGGTCLNLPGSYQCQCLQGFTGQYCDSLYVPCAPSPCVNGGTCRQTGDFTFECNCLPETVRRGTELWERDREVWNGKEHDEN
partner: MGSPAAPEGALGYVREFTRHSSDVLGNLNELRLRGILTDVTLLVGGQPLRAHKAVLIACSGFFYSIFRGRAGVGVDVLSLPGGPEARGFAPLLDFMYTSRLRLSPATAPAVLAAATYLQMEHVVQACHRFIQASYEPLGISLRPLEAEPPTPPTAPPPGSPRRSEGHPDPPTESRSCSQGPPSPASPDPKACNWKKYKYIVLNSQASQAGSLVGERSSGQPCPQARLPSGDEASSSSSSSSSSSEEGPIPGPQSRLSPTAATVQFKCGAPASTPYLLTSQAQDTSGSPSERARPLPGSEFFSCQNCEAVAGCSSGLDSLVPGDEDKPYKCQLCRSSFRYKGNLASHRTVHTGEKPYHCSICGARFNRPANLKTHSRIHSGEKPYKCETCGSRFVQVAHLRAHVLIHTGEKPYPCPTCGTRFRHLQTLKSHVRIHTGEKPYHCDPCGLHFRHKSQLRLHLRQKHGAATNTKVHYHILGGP
B6: Mannose-1-phosphate guanylyltransferase regulatory subunit alpha (Homo sapiens), Q96IJ6 (parent)
chain: MLKAVILIGGPQKGTRFRPLSFEVPKPLFPVAGVPMIQHHIEACAQVPGMQEILLIGFYQPDEPLTQFLEAAQQEFNLPVRYLQEFAPLGTGGGLYHFRDQILAGSPEAFFVLNADVCSDFPLSAMLEAHRRQRHPFLLLGTTANRTQSLNYGCIVENPQTHEVLHYVEKPSTFISDIINCGIYLFSPEALKPLRDVFQRNQQDGQLEDSPGLWPGAGTIRLEQDVFSALAGQGQIYVHLTDGIWSQIKSAGSALYASRLYLSRYQDTHPERLAKHTPGGPWIRGNVYIHPTAKVAPSAVLGPNVSIGKGVTVGEGVRLRESIVLHGATLQEHTCVLHSIVGWGSTVGRWARVEGTPSDPNPNDPRARMDSESLFKDGKLLPAITILGCRVRIPAEVLILNSIVLPHKELSRSFTNQIIL
B7: Maspardin (Homo sapiens), Q9NZD8 (parent)
chain: MGEIKVSPDYNWFRGTVPLKKIIVDDDDSKIWSLYDAGPRSIRCPLIFLPPVSGTADVFFRQILALTGWGYRVIALQYPVYWDHLEFCDGFRKLLDHLQLDKVHLFGASLGGFLAQKFAEYTHKSPRVHSLILCNSFSDTSIFNQTWTANSFWLMPAFMLKKIVLGNFSSGPVDPMMADAIDFMVDRLESLGQSELASRLTLNCQNSYVEPHKIRDIPVTIMDVFDQSALSTEAKEEMYKLYPNARRAHLKTGGNFPYLCRSAEVNLYVQIHLLQFHGTKYAAIDPSMVSAEELEVQKGSLGISQEEQ
partner: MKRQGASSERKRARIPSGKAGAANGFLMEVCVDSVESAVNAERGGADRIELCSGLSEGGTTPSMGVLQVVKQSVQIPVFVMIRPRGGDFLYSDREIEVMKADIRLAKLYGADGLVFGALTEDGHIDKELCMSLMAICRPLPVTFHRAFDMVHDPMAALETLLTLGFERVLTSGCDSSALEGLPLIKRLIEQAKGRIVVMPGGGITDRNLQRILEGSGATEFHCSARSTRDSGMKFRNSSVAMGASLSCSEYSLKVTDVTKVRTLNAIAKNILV
B8: AN1-type zinc finger protein 2B (Homo sapiens), Q8WV99 (parent)
chain: MEFPDLGAHCSEPSCQRLDFLPLKCDACSGIFCADHVAYAQHHCGSAYQKDIQVPVCPLCNVPVPVARGEPPDRAVGEHIDRDCRSDPAQQKRKIFTNKCERAGCRQREMMKLTCERCSRNFCIKHRHPLDHDCSGEGHPTSRAGLAAISRAQAVASTSTVPSPSQTMPSCTSPSRATTRSPSWTAPPVIALQNGLSEDEALQRALEMSLAETKPQVPSCQEEEDLALAQALSASEAEYQRQQAQSRSSKPSNCSLC
partner: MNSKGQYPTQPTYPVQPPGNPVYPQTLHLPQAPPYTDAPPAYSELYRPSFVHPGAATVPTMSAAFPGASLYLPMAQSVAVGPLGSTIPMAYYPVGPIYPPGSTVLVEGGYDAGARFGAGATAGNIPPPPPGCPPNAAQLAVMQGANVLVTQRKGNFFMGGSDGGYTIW

The variants in the first test derive from B1. The following applies: with fcsd2_human FCHSD2, O94868.
As for R340W, the “effect of a mutation on the interaction” value is given as “with no effect”.

For the variant R510H, the “effect of a mutation on the interaction” value is on record as “with no effect”.

Variants of B2 are the subject of the next test. The settings on record: with mdfi_human MDFI.
With K93R, the “effect of a mutation on the interaction” value is “with no effect”.

A further test covers variants of B3. The settings on record: with rel_human REL.
On to G112S, for which the “effect of a mutation on the interaction” value was “with no effect”.

In the next test the parent is B4. The settings on record: with sat1_human SAT1, P21673.
Sequence of sat1_human SAT1, P21673 (P21673 whole entry): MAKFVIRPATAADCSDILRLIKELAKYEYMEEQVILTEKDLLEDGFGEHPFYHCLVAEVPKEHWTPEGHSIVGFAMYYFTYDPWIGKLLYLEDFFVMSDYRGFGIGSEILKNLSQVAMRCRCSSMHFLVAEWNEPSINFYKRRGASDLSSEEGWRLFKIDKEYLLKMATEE
For the variant R126C, the “effect of a mutation on the interaction” value is given as “disrupting interaction strength”.

Variants of B5 are the subject of the next test. The following applies: with bcl6b_human BCL6B.
Turning to A115T, the “effect of a mutation on the interaction” value is given as “with no effect”.

As for R74Q, the “effect of a mutation on the interaction” value is reported as “with no effect”.

The next test covers variants of B6. The following applies: with gmppb_human GMPPB.
Consider V156I, for which the “effect of a mutation on the interaction” value was “with no effect”.

The variants in a further test derive from B7. The following applies: with cutc_human CUTC.
In the case of H272D, the “effect of a mutation on the interaction” value is given as “disrupting interaction strength”.

For the variant A180T, the “effect of a mutation on the interaction” value is “with no effect”.

Variants of B8 are the subject of a further test. The following applies: with dazp2_human DAZAP2, Q15038.
For P71H, the “effect of a mutation on the interaction” value was “with no effect”.
